According to patent publication US20260151494A1 (ARO BIOTHERAPEUTICS, published 2026):

B1: CD71-binding FN3 domain SEQ ID NO 380 (designed binder)
chain: MLPAPKNLVVSRVTEDSARLSWTAPDAAFDSFFIGYLEPQPPGEAIGLFVPGSERSYDLTGLKPGTEYNVTIQGVKGGFPSMPLSAIFTT
B2: CD71-binding FN3 domain SEQ ID NO 346 (designed binder)
chain: MLPAPKNLVVSRVTEDSARLSWTAPDAAFDSFFIGYLEPQPPGEAISLFVPGSERSYDLTGLKPGTEYNVTIQGVKGGFPSDPLNATFNT
B3: CD71-binding FN3 domain SEQ ID NO 347 (designed binder)
chain: MLPAPKNLVVSRVTEDSARLSWTAPDAAFDSFFIGYLEPQPPGEAIGLFVPGSERSYDLTGLKPGTEYNVTIQGVKGGFPSEPLKAAFTT
B4: CD71-binding FN3 domain SEQ ID NO 349 (designed binder)
chain: MLPAPKNLVVSRVTEDSARLSWTAPDAAFDSFFIGYLEPQPPGEAIELYVPGSERSYDLTGLKPGTEYNVTIQGVKGGFPSEPLIAHFTT
B5: CD71-binding FN3 domain SEQ ID NO 350 (designed binder)
chain: MLPAPKNLVVSRVTEDSARLSWTAPDAAFDSFFIGYLEPQPPGEAISLFVPGSERSYDLTGLKPGTEYNVTIQGVKGGFPSMPLVAQFTT
B6: CD71-binding FN3 domain SEQ ID NO 351 (designed binder)
chain: MLPAPKNLVVSRVTEDSARLSWTAPDAAFDSFFIGYLEPQPPGEAITLAVPGSERSYDLTGLKPGTEYNVTIQGVKGGFPSNPLLAAFTT
B7: CD71-binding FN3 domain SEQ ID NO 353 (designed binder)
chain: MLPAPKNLVVSRVTEDSARLSWTAPDAAFDSFFIGYLEPQPPGEAIGLFVPGSERSYDLTGLKPGTEYNVTIQGVKGGFPSNPLEARFTT
B8: CD71-binding FN3 domain SEQ ID NO 354 (designed binder)
chain: MLPAPKNLVVSRVTEDSARLSWTAPDAAFDSFFIGYLEPQPPGEAIQLWVPGSERSYDLTGLKPGTEYNVTIQGVKGGFPSLPLVATFTT
B9: CD71-binding FN3 domain SEQ ID NO 355 (designed binder)
chain: MLPAPKNLVVSRVTEDSARLSWTAPDAAFDSFFIGYLEPQPPGEAIHLYVPGSERSYDLTGLKPGTEYNVTIQGVKGGFPSHPLYADFTT
B10: CD71-binding FN3 domain SEQ ID NO 356 (designed binder)
chain: MLPAPKNLVVSRITEDSARLSWTAPDAAFDSFFIGYLEPQPPGEAITLLVPASERSYDLTGLKPGTEYNVTIQGVKGGFPSHPLQAQFTT
B11: CD71-binding FN3 domain SEQ ID NO 357 (designed binder)
chain: MLPAPKNLVVSRVTEDSARLSWTAPDAAFDSFFIGYLEPQPPGEAIGLFVPGSERSYDLTGLKPGTEYNVTIQGVKGGFPSDPLVAYFTT
B12: CD71-binding FN3 domain SEQ ID NO 360 (designed binder)
chain: MLPAPKNLVVSRVTEDSARLSWTAPDAAFDSFFIGYLEPQPPGEAISLYVPGSERSYDLTGLKPGTEYNVTIQGVKGGFPSHPLLAVFTT
B13: CD71-binding FN3 domain SEQ ID NO 361 (designed binder)
chain: MLPAPKNLVVSRVTEDSARLSWTAPDAAFDSFFIGYLEPQPPGEAIQLFVPGSERSYDLTGLKPGTEYNVTIQGVKGGFPSIPLSALFTT
B14: CD71-binding FN3 domain SEQ ID NO 363 (designed binder)
chain: MLPAPKNLVVSRVTEDSARLSWTAPDAAFDSFFIGYLEPQPPGEAIDLWVPGSERSYDLTGLKPGTEYNVTIQGVKGGFPSLPLSAIFTT
B15: CD71-binding FN3 domain SEQ ID NO 364 (designed binder)
chain: MLPAPNNLVVSRVTEDSARLSWTAPDAAFDSFFIGYLEPQPPGEAIHLFVPGSERSYDLTGLKPGTEYNVTIQGVKGGFPSGPLHATFTT
B16: CD71-binding FN3 domain SEQ ID NO 365 (designed binder)
chain: MLPAPKNLVVSRVTEDSARLSWTAPDAAFDSFFIGYLEPQPPGEAIVLWVPGSERSYDLTGLKPGTEYNVTIQGVKGGFPSHPLVAKFTT
B17: CD71-binding FN3 domain SEQ ID NO 366 (designed binder)
chain: MLPAPKNLVVSRVTEDSARLSWTAPDAAFDSFFIGYLEPQPPGEAIDLWVPGSERSYDLTGLKPGTEYNVTIQGVKGGFPSNPLKAQFTT
B18: CD71-binding FN3 domain SEQ ID NO 368 (designed binder)
chain: MLPAPKNLVVSRVTEDSARLSWTAPDAAFDSFFIGYLEPQPPGEAITLTVPGSERSYDLTGLKPGTEYNVTIQGVKGGFPSGPLIASFTT
B19: CD71-binding FN3 domain SEQ ID NO 369 (designed binder)
chain: MLPAPKNLVVSRVTEDSARLSWTAPDAAFDSFFIGYLEPQPPGEAIVLWVPGSERSYDLTGLKPGTEYNVTIQGVKGGFPSHPLVAKSTT
B20: CD71-binding FN3 domain SEQ ID NO 372 (designed binder)
chain: MLPAPKNLVVSRVTEDSARLSWTAPDAAFDSFFIGYLEPQPPGEAINLLVPGSERSYDLTGLKPGTEYNVTIQGVKGGFPSLPLLAEFTT
B21: CD71-binding FN3 domain SEQ ID NO 373 (designed binder)
chain: MLPAPKNLVVSRVTEDSARLSWTAPDAAFDSFFIGYLEPQPPGEAISLFVPGSERSYDLTGLKPGTEYNVTIQGVKGGFPSDPLVASFTT
B22: CD71-binding FN3 domain SEQ ID NO 375 (designed binder)
chain: MLPAPKNLVVSRVTEDSARLSWTAPDAAFDSFFIGYLEPQPPGEAIDLTVPGSERSYDLTGLKPGTEYNVTIQGVKGGFPSMPLSAIFTT
B23: CD71-binding FN3 domain SEQ ID NO 376 (designed binder)
chain: MLPAPKNLVVSRVTEDSARLSWTAPDAAFDSFFIGYLEPQPPGEAIALLVPGSERSYDLTGLKPGTEYNVTIQGVKGGFPSNPLEAKFTT
B24: CD71-binding FN3 domain SEQ ID NO 377 (designed binder)
chain: MLPAPKNLVVSRVTEDSARLSWTAPDAAFDSFFIGYLEPQPPGEAIQLWVPGSERSYDLTGLKPGTEYNVTIQGVKGGFPSTPLQALFTT
B25: CD71-binding FN3 domain SEQ ID NO 378 (designed binder)
chain: MLPAPKNLVVSRVTEDSARLSWTAPDAAFDSFFIGYLEPQPPGEAIDLWVPGSERSYDLTGLKPGTEYNVTIQGVKGGFPSTPLIATVTT
B26: CD71-binding FN3 domain SEQ ID NO 382 (designed binder)
chain: MLPAPKNLVVSRVTEDSARLSWTAPDAAFDSFFIGYLEPQPPGEAIELYVPGSERSYDLTGLKPGTEYNVTIQGVKGGFPSDPLEADFTT
B27: CD71-binding FN3 domain SEQ ID NO 383 (designed binder)
chain: MLPAPKNLVVSRVTEDSARLSWTAPDAAFDSFFIGYLEPQPPGEAIDLWVPGSERSYDLTGLKPGTEYNVTIQGVKGGFPSLPLDAVFTT
B28: CD71-binding FN3 domain SEQ ID NO 385 (designed binder)
chain: MLPAPKNLVVSRVTEDSARLSWTAPDAAFDSFFIGYLEPQPPGEAIDLYVPGSERSYDLTGLKPGTEYNVTIQGVKGGFPSHPLQAHFTT
B29: CD71-binding FN3 domain SEQ ID NO 387 (designed binder)
chain: MLPAPKNLVVSRVTEDSARLSWTAPDAAFDSFFIGYLEPQPPGEAIHLVVPGSERSYDLTGLKPGTEYNVTIQGVKGGFPSDPLYAWFTT
B30: CD71-binding FN3 domain SEQ ID NO 389 (designed binder)
chain: MLPAPKNLVVSRVTEDSARLSWTAPDAAFDSFFIGYLEPQPPGEAIHLLVPGSERSYDLTGLKPGTEYNVTIQGVKGGFPSMPLSAIVTT

Experiments:
[1] = biological target: T1, human apical domain of CD71 (human, UniProt P02786 189-383, limits assumed); experiment: primary ELISA; further: test concentration or dose not given here
T1 construct: domain: apical domain
T1 sequence (P02786 189-383 limits assumed): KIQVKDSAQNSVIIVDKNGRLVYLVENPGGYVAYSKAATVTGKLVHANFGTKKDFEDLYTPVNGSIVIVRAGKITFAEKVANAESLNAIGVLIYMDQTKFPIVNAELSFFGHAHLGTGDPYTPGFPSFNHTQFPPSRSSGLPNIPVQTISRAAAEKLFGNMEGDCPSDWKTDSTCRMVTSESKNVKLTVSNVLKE

[2] = biological target: T2, human CD71 extracellular domain (human, UniProt P02786 89-760); experiment: primary ELISA; further: test concentration or dose not given here
T2 construct: also called hCD71; CD71-ECD
T2 sequence (P02786 89-760): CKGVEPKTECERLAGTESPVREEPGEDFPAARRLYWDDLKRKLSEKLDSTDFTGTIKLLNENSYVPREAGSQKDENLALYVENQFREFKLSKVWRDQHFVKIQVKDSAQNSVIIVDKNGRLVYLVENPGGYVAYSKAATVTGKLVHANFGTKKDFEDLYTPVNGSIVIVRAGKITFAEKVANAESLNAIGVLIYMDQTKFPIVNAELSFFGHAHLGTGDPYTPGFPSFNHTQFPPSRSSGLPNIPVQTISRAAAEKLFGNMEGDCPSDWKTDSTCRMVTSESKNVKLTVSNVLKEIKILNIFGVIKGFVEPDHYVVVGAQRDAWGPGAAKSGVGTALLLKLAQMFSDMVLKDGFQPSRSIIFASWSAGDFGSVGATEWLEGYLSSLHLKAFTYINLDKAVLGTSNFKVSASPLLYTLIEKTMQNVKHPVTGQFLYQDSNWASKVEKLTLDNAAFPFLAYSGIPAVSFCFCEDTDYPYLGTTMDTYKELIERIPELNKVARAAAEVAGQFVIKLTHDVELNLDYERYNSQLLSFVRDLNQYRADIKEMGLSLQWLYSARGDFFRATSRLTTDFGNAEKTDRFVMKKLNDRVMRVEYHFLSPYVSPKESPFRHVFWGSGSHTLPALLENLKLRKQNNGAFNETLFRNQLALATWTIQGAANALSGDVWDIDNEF

[3] = biological target: T1, human apical domain of CD71; experiment: primary ELISA; signal over HSA control; on RLU: test concentration or dose not given here
[4] = biological target: T2, human CD71 extracellular domain; experiment: primary ELISA; signal over HSA control; on RLU: test concentration or dose not given here

| Binder | RLU [1] [RLU] | RLU [2] [RLU] | Apical domain:HSA [3] [ratio] | hCD71:HSA [4] [ratio] |
| --- | --- | --- | --- | --- |
| B1 | 6.5e+06 | 5.32e+06 | 25 | 21 |
| B2 | 6.82e+06 | 5e+06 | 83 | 61 |
| B3 | 5.95e+06 | 4.1e+06 | 168 | 116 |
| B4 | 6.87e+06 | 6.37e+06 | 23 | 22 |
| B5 | 6.7e+06 | 5.96e+06 | 143 | 127 |
| B6 | 2.87e+06 | 2.67e+06 | 345 | 322 |
| B7 | 6.87e+06 | 4.54e+06 | 80 | 53 |
| B8 | 5.25e+06 | 5.75e+06 | 142 | 155 |
| B9 | 5.91e+06 | 3.58e+06 | 424 | 257 |
| B10 | 6.37e+06 | 3.92e+06 | 337 | 207 |
| B11 | 6.34e+06 | 5.62e+06 | 18 | 16 |
| B12 | 5.37e+06 | 5.78e+06 | 144 | 155 |
| B13 | 5.01e+06 | 3.08e+06 | 342 | 210 |
| B14 | 4.91e+06 | 4.18e+06 | 320 | 273 |
| B15 | 6.5e+06 | 5.83e+06 | 67 | 60 |
| B16 | 6.7e+06 | 6.85e+06 | 65 | 67 |
| B17 | 3.37e+06 | 2.29e+06 | 313 | 213 |
| B18 | 6.23e+06 | 5.53e+06 | 246 | 218 |
| B19 | 3.66e+06 | 3.82e+06 | 165 | 172 |
| B20 | 4.63e+06 | 2.8e+06 | 205 | 124 |
| B21 | 5.73e+06 | 4.86e+06 | 115 | 98 |
| B22 | 2.09e+06 | 2.82e+06 | 139 | 187 |
| B23 | 6.47e+06 | 5.96e+06 | 167 | 153 |
| B24 | 3.43e+06 | 1.57e+06 | 274 | 125 |
| B25 | 6.12e+06 | 6.12e+06 | 76 | 76 |
| B26 | 2.55e+06 | 2.01e+06 | 203 | 160 |
| B27 | 4.33e+06 | 1.85e+06 | 220 | 94 |
| B28 | 5.91e+06 | 5.74e+06 | 146 | 142 |
| B29 | 3.88e+06 | 1.79e+06 | 441 | 203 |
| B30 | 6.19e+06 | 5.82e+06 | 129 | 121 |
